Measurements reported in article PMC3037360.

How the values were obtained:
[1] = biological target: CFP-E2TM (CFP in fusion with the transmembrane domain of HCV E2, H strain) (hepatitis C virus (H strain)); experiment: FRET or BRET
[2] = biological target: CFP-p7 (Cerulean fluorescent protein fused to the N-terminus of HCV p7) (hepatitis C virus (strain not stated)) (UniProt P27958); experiment: FRET or BRET

Row | Substance | mean lifetime of the donor protein [1] | mean lifetime of the donor protein [2]
1 | YFP-E1TM (YFP in fusion with the transmembrane domain of HCV E1, H strain) (domain or fragment) | 2.35 ns | –
2 | YFP-NS2 (Venus yellow fluorescent protein fused to the N-terminus of HCV NS2) (from UniProt P27958 810-1026) (natural protein) | – | 2.34 ns
